Where two headings read alike, the source gives them in different places.
Columns and labels:
[1] = biological target: 非洲猪瘟病毒(ASFV)灭活抗原 (African swine fever virus)
[2] = biological target: 非洲猪瘟病毒(ASFV)灭活抗原 (African swine fever virus); remark: listed apart in the source
[3] = biological target: 非洲猪瘟病毒(ASFV)灭活抗原 (African swine fever virus); remark: listed apart in the source

B1: 全猪源非洲猪瘟病毒单克隆抗体 κ-9B (antibody, V domains shown)
VH: EGKLVESGGGLVQPGGSLRLSCVGSGFDFINTYMNWVRQAPGKGLEWLATISTKGISTYYADSVKGRFTISKDNSQNTADLLMRILRIEDTVRYFCAMSDSGGRNCVAGDSSCPHYYGMNLWGPGVEVVVSS
VL: AIQLTQSPASLAASLGDTVSVTCRASQSISSYLAWYQQQPGKAPKLLIVAASTLQSGVPSRFKGSGSGTDFTLTISGLQAEDVATYYCFQRNSVPWTFGQGTKLELKA
With B1 the OD值 [1] was 0.733 OD450nm, the OD值 [2] was 1.91 OD450nm and the OD值 [3] was 0.717 OD450nm.

Source: CN113278066A
